# Assay results reported in patent US10654925B2, “Anti-marinobufagenin antibodies and uses thereof” (priority 2018, dated 2020).
# B1: H3L2: humanized anti-MBG antibody, VH H3 (SEQ ID NO: 11) with VL L2 (SEQ ID NO: 13) (antibody, V domains shown)
# VH: EVQLQESGPGLVKPSETLSLTCTVSGDSITSGYWNWIRQPPGKGLEYMGYISYSGTTYYNPSLKSRITISRDTSKNQYSLKLSSVTAADTAVYYCARARYGYGFDYWGQGTLVTVSS
# VL: DVVMTQSPLSLPVTLGQPASISCRSSQSIVHSNRNTYLEWYQQRPGQSPRLLIYKVSNRFSGVPDRFSGSGSGTDFTLKISRVEAEDVGVYYCFQGSHVPLTFGGGTKVEIK
# modifications: Humanized VH sequence; Humanized VL sequence
# How the values were obtained:
# [1] = ELISA avidity estimate on MBG-BSA; type: binding; conditions: wells coated with 2 μg/ml MBG-BSA; IgG
# Method: The avidity of anti-MBG antibodies for MBG was estimated in an ELISA. Wells of a microtiter plate were coated with 2 μg/ml of either MBG-bovine serum albumin (BSA) or MBG-keyhole limpet hemocyanin (KLH). The wells were then blocked with 1% BSA. A test IgG antibody at varying concentrations (typically from about 0.0001 nM to about 25 nM) was added to the wells. The test IgG bound to immobilized MBG was detected with an anti-human Fc, horseradish peroxidase (HRP)-conjugated secondary antibody (Jackson ImmunoResearch). After washing of the wells, an appropriate HRP reagent (e.g., TMB ultra, Thermo Fisher) was added to the wells. Optical density (OD) at 450 nm was measured by a microplate reader. The concentration of test antibody at the midpoint of the binding curve is an estimate of avidity for MBG.
# [2] = Competitive ELISA, relative CTS specificity, CINO as competitor; type: binding; conditions: competition with immobilized MBG-BSA; normalized to MBG = 100%
# Method: The specificity (relative affinity) of anti-MBG antibodies for MBG relative to various cardiotonic steroids (CTSs) was determined in a competitive ELISA. Each anti-MBG antibody was tested for its binding to immobilized MBG in the presence of free MBG, resibufogenin (RBG), cinobufagin (CINO), ouabain (OUB) or digoxin (DIG) as a competitor. A constant amount of an anti-MBG antibody (typically 1-5 μg/mL) and varying concentrations of each CTS (from 10^−12M to 10^−5M) were pre-incubated before being added to the MBG-BSA-coated wells. After washing of the wells, an anti-human Fc, HRP-conjugated secondary antibody (at 1:5000 dilution) was added to the wells and incubated at 37° C. for 1 hr. After washing of the wells, an appropriate HRP reagent (e.g., TMB ultra, Thermo Fisher) was added to the wells. OD at 450 nm was measured by a microplate reader. MBG at 10 μM was assumed to be 100% competed, and MBG at 1 pM was assumed to be 0% competed. The data was plotted as a titration of antibody-antigen binding relative to free CTS concentration in the competition reaction to determine the free CTS concentration (μM) giving 50% maximal binding of antibody to immobilized MBG. The relative specificity of an antibody for a CTS was normalized to MBG=100%.
# [3] = test system: human umbilical cord venous endothelial cells (HUVEC); assay: Reversal of MBG inhibition of HUVEC cell proliferation (3H-thymidine); type: cell-based; conditions: MBG 2 nM, antibody 2.5-10 μg/mL, 48 hr; FIG. 3b
# Method: MBG (2 nM) was incubated with an antibody (20 μg/mL in FIG. 3a with human anti-MBG mAbs, or varying concentrations (2.5-10 μg/mL) in FIG. 3b with humanized anti-MBG mAbs) prior to addition to cultured human umbilical cord venous endothelial cells (HUVEC). After 48 hr, DNA synthesis was assessed by incorporation of ^3H-thymidine.
# HUVEC cells in endothelial cell growth medium were plated onto 96-well plates. The next day, the cells were pretreated with various antibodies (2.5-20 μg/mL) and then incubated with 2 nM MBG for 48 hr. [^3H]-Thymidine was added to each well. [^3H]-Thymidine-labeled DNA was assayed by harvesting the cells and assaying for ^3H using a PerkinElmer Wallac Tailux liquid scintillation counter. […] Means were tested for significance using Student's t-test.
# Na^+K^+-ATPase (NKA) = assay: Na^+K^+-ATPase activity (Malachite Green Phosphate Assay); type: biochemical, rat; conditions: anti-MBG antibodies 1-100 μg/mL; FIG. 4
# Method: Na^+K^+-ATPase (NKA) was purified from rat heart. The NKA was collected as the sarcolemmal/particulate (SLP) fraction and frozen.
# Na^+K^+-ATPase activity was measured as follows: aliquots of SLP were mixed with Reaction Buffer (200 mM Tris-HCl, pH 7.5, 200 mM NaCL, 30 mM MgCl2, 60 mM KCl, 10 mM EGTA, 100 μg/mL PMSF, 2 μg/mL pepstatin A, and 2 μg/mL aprotinin). Reactions were performed with or without MBG and with or without anti-MBG antibodies (1-100 μg/mL). Ouabain was used as positive control for NKA inhibition. Tubes were prewarmed, and ATP was added. Reactions were stopped and were placed on ice.
# Phosphate was assayed using the Malachite Green Phosphate Assay. Phosphate standard or sample was added to each well of a 96-well plate, followed by Reagent A. Reagent B was added, with mixing and incubation. OD was then read at 630 nm in a microplate spectrophotometer.
molecule,measurement,setting,value
B1,"Estimated avidity (KA) (antibody concentration at 50% maximal binding to antigen, or EC50), Antigen 1 (MBG-BSA)",[1],600 pM
same,Rel. CTS Specificity as % of MBG Binding: CINO,[2],0%
same,"MBG inhibition of HUVEC cell proliferation, humanized mAbs",[3],significantly reduced
same,inhibitory effect of MBG on NKA in presence of antibody,Na^+K^+-ATPase (NKA),reduce the inhibitory effect of MBG on NKA
